*1 amine or outer side, *2 acyl side, *3 side chain or, on linkers, in order; H or OH if unused. Bridges are numbered along the chain shown (N, C = ends). Where no end group is shown, it is not given here. Side-chain parts run from the residue outwards. [ ]: non-standard residue; d: D form. The star is where a group is joined. Ttds = 1,13-diamino-4,7,10-trioxatridecan-succinamic acid, NCCCOCCOCCOCCCNC(=O)CCC(=O)*; DOTA(Ga) = O=C1CN2CCN3CCN(CC(=O)*)CCN(CC2)CC(=O)[O][Ga]([O]1)[O]C(=O)C3; DOTA(In) = O=C1CN2CCN3CCN(CC(=O)*)CCN(CC2)CC(=O)[O][In]([O]1)[O]C(=O)C3; DOTA(Lu) = O=C1CN2CCN3CCN(CC(=O)*)CCN(CC2)CC(=O)[O][Lu]([O]1)[O]C(=O)C3; NH(1-deoxy-D-glucityl) = OC[C@@H](O)[C@@H](O)[C@H](O)[C@@H](O)CN*; dE(AGLU) = D-glutamic acid bearing 1-amino-1-deoxy-D-glucitol; Pro(trans-4-NH2) = O=C([C@@H]1C[C@@H](N[*:3])CN1[*:1])[*:2]; DOTA = O=C(O)CN1CCN(CC(=O)O)CCN(CC(=O)*)CCN(CC(=O)O)CC1; 2Lut = 2,6-lutidylidene bridge between two thiols; Trp(5-Br) = N[C@@H](Cc1c[nH]c2ccc(Br)cc12)C(=O)O; Trp(5-Cl) = N[C@@H](Cc1c[nH]c2ccc(Cl)cc12)C(=O)O; Pyridine(2,6-diCH2) = c1cc(C[*:1])nc(C[*:2])c1; APAc = 4-amino-1-carboxymethylpiperidine; mXylylene = c1cc(C[*:1])cc(C[*:2])c1; Glutaryl = O=C(CCCC(=O)[*:2])[*:1]; AGLU = 1-amino-1-deoxy-D-glucitol; Hyp = O=C(O)[C@@H]1C[C@@H](O)CN1; Cysteamide = C(CS[*:3])N[*:1]; dGlu(AGLU) = not defined here; Suc = O=C(CCC(=O)[*:2])[*:1]; hSer = N[C@@H](CCO)C(=O)O; Api = NC1(C(=O)O)CCNCC1; Thp = NC1(C(=O)O)CCOCC1; Aib = CC(C)(N)C(=O)O
Key:
[1] = molecular target: human Gastric Inhibitory Peptide Receptor (human) (UniProt P48546); assay: FACS competition with GIP-057 on CHO-K1-hGIPR cells; pIC50 category A: >8.0
human Gastric Inhibitory Peptide Receptor (human), sequence (P48546 22-466 limits assumed): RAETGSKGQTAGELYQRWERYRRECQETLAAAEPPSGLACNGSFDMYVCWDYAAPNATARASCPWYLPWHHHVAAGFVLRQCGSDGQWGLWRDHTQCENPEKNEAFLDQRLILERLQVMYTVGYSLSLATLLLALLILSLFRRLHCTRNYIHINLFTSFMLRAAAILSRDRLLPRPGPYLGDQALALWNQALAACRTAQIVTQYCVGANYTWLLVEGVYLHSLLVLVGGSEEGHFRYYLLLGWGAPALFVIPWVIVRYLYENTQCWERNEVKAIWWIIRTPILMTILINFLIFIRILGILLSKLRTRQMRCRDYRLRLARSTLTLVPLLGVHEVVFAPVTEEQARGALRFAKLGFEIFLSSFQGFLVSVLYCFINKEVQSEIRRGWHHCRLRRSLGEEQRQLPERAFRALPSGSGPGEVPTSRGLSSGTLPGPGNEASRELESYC

[2] = molecular target: biotinylated extracellular domain of the human GIP receptor (bioGIPR) (human) (UniProt P48546); assay: SPR single cycle kinetics, bioGIPR captured on chip; category A: t1/2 >15 min
biotinylated extracellular domain of the human GIP receptor (bioGIPR) (human), sequence (P48546 24-138 limits assumed): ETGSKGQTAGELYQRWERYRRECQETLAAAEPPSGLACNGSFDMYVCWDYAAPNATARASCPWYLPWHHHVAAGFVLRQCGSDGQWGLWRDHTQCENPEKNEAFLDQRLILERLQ

[3] = molecular target: biotinylated extracellular domain of the human GIP receptor (bioGIPR) (human) (UniProt P48546); assay: SPR single cycle kinetics, bioGIPR captured on chip; category A: pKD >9.0

| Binder | pIC50 [1] | t1/2 [2] | pKD [3] |
| --- | --- | --- | --- |
| Ac-SW[Trp(5-Cl)][Hyp]E[dL]C[Thp]LIC-NH2 (linker 7-11 via Pyridine(2,6-diCH2); SMILES CC[C@H](C)[C@@H]1NC(=O)[C@H](CC(C)C)NC(=O)C2(CCOCC2)NC(=O)[C@@H](NC(=O)[C@@H](CC(C)C)NC(=O)[C@H](CCC(=O)O)NC(=O)[C@@H]2C[C@@H](O)CN2C(=O)[C@H](Cc2c[nH]c3ccc(Cl)cc23)NC(=O)[C@H](Cc2c[nH]c3ccccc23)NC(=O)[C@H](CO)NC(C)=O)CSCc2cccc(n2)CSC[C@@H](C(N)=O)NC1=O) [Ac-Ser-Trp-5Clw-Hyp-Glu-leu-[Cys(2Lut)-Thp-Leu-Ile-Cys]-NH2] | > 8 pic50 | > 15 min | > 9 pkd |
| Ac-DW[Trp(5-Cl)][Hyp][hSer][dL]C[Thp]LIC-NH2 (linker 7-11 via Pyridine(2,6-diCH2); SMILES CC[C@H](C)[C@@H]1NC(=O)[C@H](CC(C)C)NC(=O)C2(CCOCC2)NC(=O)[C@@H](NC(=O)[C@@H](CC(C)C)NC(=O)[C@H](CCO)NC(=O)[C@@H]2C[C@@H](O)CN2C(=O)[C@H](Cc2c[nH]c3ccc(Cl)cc23)NC(=O)[C@H](Cc2c[nH]c3ccccc23)NC(=O)[C@H](CC(=O)O)NC(C)=O)CSCc2cccc(n2)CSC[C@@H](C(N)=O)NC1=O) [Ac-Asp-Trp-5Clw-Hyp-Hse-leu-[Cys(2Lut)-Thp-Leu-Ile-Cys]-NH2] | > 8 pic50 | > 15 min | > 9 pkd |
| Ac-[hSer]W[Trp(5-Br)][Hyp]E[dL]C[Thp]LIC-NH2 (linker 7-11 via Pyridine(2,6-diCH2); SMILES CC[C@H](C)[C@@H]1NC(=O)[C@H](CC(C)C)NC(=O)C2(CCOCC2)NC(=O)[C@@H](NC(=O)[C@@H](CC(C)C)NC(=O)[C@H](CCC(=O)O)NC(=O)[C@@H]2C[C@@H](O)CN2C(=O)[C@H](Cc2c[nH]c3ccc(Br)cc23)NC(=O)[C@H](Cc2c[nH]c3ccccc23)NC(=O)[C@H](CCO)NC(C)=O)CSCc2cccc(n2)CSC[C@@H](C(N)=O)NC1=O) [Ac-Hse-Trp-5Brw-Hyp-Glu-leu-[Cys(2Lut)-Thp-Leu-Ile-Cys]-NH2] | > 8 pic50 | > 15 min | > 9 pkd |
| Suc-W[Trp(5-Cl)][Hyp]E[dL]C[Thp]LIC-{APAc-dGlu(AGLU)-Lys(DOTA)-NH2} (linker 6-10 via 2Lut; reading uncertain; also: printed as HO-Succinyl-Trp-5Clw-Hyp-Glu-leu-[Cys(2Lut)-Thp-Leu-Ile-Cys]-APAc-glu(AGLU)-Lys(DOTA)-NH2) [HO-Succinyl-Trp-5Clw-Hyp-Glu-leu-[Cys(2Lut)-Thp-Leu-Ile-Cys]-APAc-glu(AGLU)-Lys(DOTA)-NH2] | > 8 pic50 | > 15 min | > 9 pkd |
| W[Trp(5-Cl)][Pro(trans-4-NH2)]E[dL]C[Api]LIC-{APAc-dE(AGLU)-K(DOTA)-NH2} (linker 6-10 via 2Lut; not fully specified (N-terminus); printed as HO-Succinyl-Trp-5Clw-Tap-Glu-leu-[Cys(2Lut)-Apc-Leu-Ile-Cys]-APAc-glu(AGLU)-Lys(DOTA)-NH2) [HO-Succinyl-Trp-5Clw-Tap-Glu-leu-[Cys(2Lut)-Apc-Leu-Ile-Cys]-APAc-glu(AGLU)-Lys(DOTA)-NH2] | > 8 pic50 | > 15 min | > 9 pkd |
| {AGLU-Glutaryl}-DW[Trp(5-Cl)][Pro(trans-4-NH2)]E[dL]C[Api](DOTA)LIC-{APAc-dE(AGLU)-NH2} (linker 7-11 via Pyridine(2,6-diCH2)) [AGLU-Glutar-Asp-Trp-5Clw-Tap-Glu-leu-[Cys(2Lut)-Apc(DOTA)-Leu-Ile-Cys]-APAc-glu(AGLU)-NH2] | > 8 pic50 | > 15 min | > 9 pkd |
| DWXXEXCXLIC (AGLU-Glutar; 5Clw; Hyp; D-leu; Apc(DOTA); 2Lut bridge Cys-Cys; APAc; D-glu(AGLU); C-term NH2) [AGLU-Glutar-Asp-Trp-5Clw-Hyp-Glu-leu-[Cys(2Lut)-Apc(DOTA)-Leu-Ile-Cys]-APAc-glu(AGLU)-NH2] | > 8 pic50 | > 15 min | > 9 pkd |
| {AGLU-Glutaryl}-DW[Trp(5-Cl)][Hyp]E[dL]C[Thp]LIC-{APAc-dE(AGLU)-K(DOTA)-NH2} (linker 7-11 via Pyridine(2,6-diCH2)) [AGLU-Glutar-Asp-Trp-5Clw-Hyp-Glu-leu-[Cys(2Lut)-Thp-Leu-Ile-Cys]-APAc-glu(AGLU)-Lys(DOTA)-NH2] | > 8 pic50 | > 15 min | > 9 pkd |
| {DOTA-dE(AGLU)-APAc}-DW[Trp(5-Cl)][Hyp]E[dL]C[Thp]LIC-{APAc-dE(AGLU)-NH2} (linker 7-11 via Pyridine(2,6-diCH2)) [DOTA-glu(AGLU)-APAc-Asp-Trp-5Clw-Hyp-Glu-leu-[Cys(2Lut)-Thp-Leu-Ile-Cys]-APAc-glu(AGLU)-NH2] | > 8 pic50 | > 15 min | > 9 pkd |
| {AGLU-Glutaryl-APAc}-DW[Trp(5-Cl)][Pro(trans-4-NH2)]([Glutaryl-NH(1-deoxy-D-glucityl)])E[dL]C[Api](DOTA)LIC-{APAc-dE(AGLU)-NH2} (linker 7-11 via Pyridine(2,6-diCH2)) | > 8 pic50 | > 15 min | > 9 pkd |
| DWXXEXCXLIC (AGLU-Glutar; 5Clw; Hyp; D-leu; Apc(InDOTA); 2Lut bridge Cys-Cys; APAc; D-glu(AGLU); C-term NH2) [AGLU-Glutar-Asp-Trp-5Clw-Hyp-Glu-leu-[Cys(2Lut)-Apc(InDOTA)-Leu-Ile-Cys]-APAc-glu(AGLU)-NH2] | > 8 pic50 | > 15 min | > 9 pkd |
| {AGLU-Glutaryl}-DW[Trp(5-Cl)][Hyp]E[dL]C[Api](DOTA(Lu))LIC-{APAc-dE(AGLU)-NH2} (linker 7-11 via Pyridine(2,6-diCH2)) [AGLU-Glutar-Asp-Trp-5Clw-Hyp-Glu-leu-[Cys(2Lut)-Apc(LuDOTA)-Leu-Ile-Cys]-APAc-glu(AGLU)-NH2] | > 8 pic50 | > 15 min | > 9 pkd |
| {AGLU-Glutaryl}-DW[Trp(5-Cl)][Pro(trans-4-NH2)]E[dL]C[Api](DOTA(Lu))LIC-{APAc-dE(AGLU)-NH2} (linker 7-11 via Pyridine(2,6-diCH2)) [AGLU-Glutar-Asp-Trp-5Clw-Tap-Glu-leu-[Cys(2Lut)-Apc(LuDOTA)-Leu-Ile-Cys]-APAc-glu(AGLU)-NH2] | > 8 pic50 | > 15 min | > 9 pkd |
| {AGLU-Glutaryl}-DW[Trp(5-Cl)][Pro(trans-4-NH2)]E[dL]C[Api](DOTA(In))LIC-{APAc-dE(AGLU)-NH2} (linker 7-11 via Pyridine(2,6-diCH2)) [AGLU-Glutar-Asp-Trp-5Clw-Tap-Glu-leu-[Cys(2Lut)-Apc(InDOTA)-Leu-Ile-Cys]-APAc-glu(AGLU)-NH2] | > 8 pic50 | > 15 min | > 9 pkd |
| {AGLU-Glutaryl}-DW[Trp(5-Cl)][Pro(trans-4-NH2)]E[dL]C[Api](DOTA(Ga))LIC-{APAc-dE(AGLU)-NH2} (linker 7-11 via Pyridine(2,6-diCH2)) [AGLU-Glutar-Asp-Trp-5Clw-Tap-Glu-leu-[Cys(2Lut)-Apc(GaDOTA)-Leu-Ile-Cys]-APAc-glu(AGLU)-NH2] | > 8 pic50 | > 15 min | > 9 pkd |
| {AGLU-Glutaryl}-DW[Trp(5-Cl)][Hyp]E[dL]C[Api](DOTA)LI[Cysteamide] (thioether (positions not given here) via Pyridine(2,6-diCH2); not fully specified (bridges); printed as AGLU-Glutar-Asp-Trp-5Clw-Hyp-Glu-leu-[Cys(2Lut)-Apc(DOTA)-Leu-Ile-AET]) [AGLU-Glutar-Asp-Trp-5Clw-Hyp-Glu-leu-[Cys(2Lut)-Apc(DOTA)-Leu-Ile-AET]] | > 8 pic50 | > 15 min | > 9 pkd |
| {DOTA-Ttds}-DW[Trp(5-Cl)]PE[dL]C[Aib]LI[Cysteamide] (linker (positions not given here) via mXylylene; not fully specified (bridges); printed as DOTA-Ttds-Asp-Trp-5Clw-Pro-Glu-leu-[Cys(3MeBn)-Aib-Leu-Ile-AET]) [DOTA-Ttds-Asp-Trp-5Clw-Pro-Glu-leu-[Cys(3MeBn)-Aib-Leu-Ile-AET]] | > 8 pic50 | > 15 min | > 9 pkd |
